Drawing on patent US20050282743A1, “Molecular interactions in cells” (Arbor Vita Corporation, priority 2001, published 2005), this text covers Classification and Kd for four molecules.

In test [1] the target is T1, GST-prIL16 PDZ domains 1, 2, Q14005.
T1 chain: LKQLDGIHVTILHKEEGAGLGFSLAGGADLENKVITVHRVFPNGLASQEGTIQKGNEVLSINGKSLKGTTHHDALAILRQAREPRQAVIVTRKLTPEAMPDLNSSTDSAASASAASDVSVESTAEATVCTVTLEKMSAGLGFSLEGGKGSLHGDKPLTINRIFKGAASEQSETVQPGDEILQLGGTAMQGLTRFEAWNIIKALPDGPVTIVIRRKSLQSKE
In words: G' assay. Further: key of the grades not given here.

In test [2] the target is T2, GST-SYNTENIN PDZ domain 2 (Homo sapiens (Human)), O00560.
T2 chain: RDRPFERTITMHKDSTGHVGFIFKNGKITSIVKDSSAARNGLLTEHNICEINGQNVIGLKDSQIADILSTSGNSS
In words: G' assay. Further: key of the grades not given here.

For test [3], the target named is T3, GST-MUPP1 PDZ domain 4 (Homo sapiens (Human)), O75970.
T3 chain: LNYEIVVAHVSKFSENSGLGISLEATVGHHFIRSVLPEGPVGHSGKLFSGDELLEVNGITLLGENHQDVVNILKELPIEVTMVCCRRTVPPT
As to the kind of experiment: G' assay. Further: key of the grades not given here.

The target in test [4] is T4, GST-AIPC PDZ domain 3 (Homo sapiens (Human)), O15018.
T4 chain: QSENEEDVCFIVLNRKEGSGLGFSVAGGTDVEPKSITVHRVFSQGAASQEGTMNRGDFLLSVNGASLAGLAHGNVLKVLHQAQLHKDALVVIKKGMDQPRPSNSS
As to the kind of experiment: G' assay. Further: key of the grades not given here.

Test [5] concerns the target T5, GST-SIP1 PDZ domain 2 (Homo sapiens (Human)), Q15599.
T5 chain: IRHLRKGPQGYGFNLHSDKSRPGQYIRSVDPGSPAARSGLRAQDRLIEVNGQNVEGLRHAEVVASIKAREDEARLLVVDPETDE
As to the kind of experiment: G' assay. Further: key of the grades not given here.

Test [6] has as its target T6, GST-TIP1 PDZ domain 1 (Table 9 insert) (Homo sapiens (Human)), O14907.
T6 chain: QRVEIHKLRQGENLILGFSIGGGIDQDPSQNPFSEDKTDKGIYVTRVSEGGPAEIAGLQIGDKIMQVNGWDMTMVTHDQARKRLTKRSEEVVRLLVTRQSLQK
In words: G assay titration, PDZ 0.5 ug/ml.

The target in test [7] is T7, GST-PDZ-73 PDZ domain 2 (Homo sapiens (Human)), Q9Y6N9.
T7 chain: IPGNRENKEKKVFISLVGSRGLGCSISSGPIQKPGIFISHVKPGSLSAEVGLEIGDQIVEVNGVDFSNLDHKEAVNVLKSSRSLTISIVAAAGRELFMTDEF
As to the kind of experiment: G' assay. Further: key of the grades not given here.

Test [8] concerns the target T8, GST-APXL-1 PDZ domain 1 (Homo sapiens (Human)), Q13796.
T8 chain: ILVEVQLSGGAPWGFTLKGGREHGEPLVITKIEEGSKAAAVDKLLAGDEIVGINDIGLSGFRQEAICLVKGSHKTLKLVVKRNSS
As to the kind of experiment: G assay titration, PDZ 0.5 ug/ml.

The target of test [9] is GST-DLG1 PDZ domain 1 (Homo sapiens), Q12959. As to the kind of experiment: G assay titration, PDZ 0.5 ug/ml.
Test [10] has as its target T9, GST-DLG2 PDZ domain 2 (Homo sapiens (Human)), Q15700.
T9 chain: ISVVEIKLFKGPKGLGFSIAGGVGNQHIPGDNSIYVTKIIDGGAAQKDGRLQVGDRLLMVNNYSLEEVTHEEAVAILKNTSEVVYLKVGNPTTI
In words: G assay titration, PDZ 0.5 ug/ml.

Test [11] deals with GST-Atrophin-1 Interacting Protein PDZ domain 1 (Rattus norvegicus (Rat)), O88382. In words: G assay titration, PDZ 0.5 ug/ml.
GST-Atrophin-1 Interacting Protein PDZ domain 1 (Rattus norvegicus (Rat)), O88382, sequence (O88382 408-511): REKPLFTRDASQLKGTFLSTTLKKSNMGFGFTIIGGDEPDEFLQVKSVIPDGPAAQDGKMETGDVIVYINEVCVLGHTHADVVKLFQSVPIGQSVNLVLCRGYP
Test [12] has as its target GST-BAI-1 Associated Protein PDZ domain 3 (Homo sapiens (Human)), Q96QZ7. As to the kind of experiment: G assay titration, PDZ 0.5 ug/ml.

GST-BAI-1 Associated Protein PDZ domain 3 (Homo sapiens (Human)), Q96QZ7, sequence (Q96QZ7 other isoform, or with tags, fused parts or gaps): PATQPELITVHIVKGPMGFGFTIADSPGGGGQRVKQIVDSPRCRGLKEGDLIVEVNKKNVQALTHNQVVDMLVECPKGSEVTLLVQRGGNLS

For the molecule ILNSIQVMRAQMNQIQSVEV (modifications not checked) [ephrin B2], the Classification is 2 A450 class in test [1]; 2 A450 class in test [2]; 1 A450 class in [3]; 1 A450 class in test [4]; 2 A450 class in test [5].

VPGALDYAAFSSALYGESDL (modifications not checked) [a-actinin 2] gave a dissociation constant Kd in test [6] of 1000 nM.

In the case of PIPAGGCTFSGIFPTLTSPL (modifications not checked) [KIA 1481], in test [7], the Classification was determined as 1 A450 class. Also, in [8], the Kd was found to be 600 nM.

For VGTLLLERVIFPSVKIATLV (modifications not checked) [AdenoE4 typ9], the Kd in test [9] amounted to 100 nM; in test [10] it was 50 nM; in test [11], 20 nM; in [12], 75 nM.
